Measured values published in article PMC12216677, “Structural dynamics of IDR interactions in human SFPQ and implications for liquid–liquid phase separation” (Acta Crystallographica Section D: Structural Biology, 2025).
One block for each binder: values may come before it.

Legend:
[1] = biological target: the molecule itself; test: SEC-SAXS; inline SEC-SAXS co-flow, Superdex 200 5/150, 500 mM KNO3, 20 mM HEPES pH 7.4, 5% glycerol, 1 mM DTT, 25 °C; injected at 4.2 mg/ml (full length) or 5 mg/ml (1–598)
[2] = biological target: the molecule itself; test: SEC-SAXS; inline SEC-SAXS co-flow, Superdex 200 5/150, low salt: 150 mM KCl, 20 mM HEPES pH 7.4, 5% glycerol, 5 mM MgCl2, 1 mM DTT, 25 °C; injected at 4.91 mg/ml
[3] = biological target: T1, full-length SFPQ (splicing factor proline- and glutamine-rich) (Homo sapiens), P23246; test: SANS; static cell, 1:20 hSFPQ:dSFPQ at 0.63 mg/ml, no match-out, 150 mM KCl, 1.5% glycerol, 20 mM HEPES, 1 mM DTT pH 7.4 in H2O; settings: remark: other sources report otherwise
T1 chain: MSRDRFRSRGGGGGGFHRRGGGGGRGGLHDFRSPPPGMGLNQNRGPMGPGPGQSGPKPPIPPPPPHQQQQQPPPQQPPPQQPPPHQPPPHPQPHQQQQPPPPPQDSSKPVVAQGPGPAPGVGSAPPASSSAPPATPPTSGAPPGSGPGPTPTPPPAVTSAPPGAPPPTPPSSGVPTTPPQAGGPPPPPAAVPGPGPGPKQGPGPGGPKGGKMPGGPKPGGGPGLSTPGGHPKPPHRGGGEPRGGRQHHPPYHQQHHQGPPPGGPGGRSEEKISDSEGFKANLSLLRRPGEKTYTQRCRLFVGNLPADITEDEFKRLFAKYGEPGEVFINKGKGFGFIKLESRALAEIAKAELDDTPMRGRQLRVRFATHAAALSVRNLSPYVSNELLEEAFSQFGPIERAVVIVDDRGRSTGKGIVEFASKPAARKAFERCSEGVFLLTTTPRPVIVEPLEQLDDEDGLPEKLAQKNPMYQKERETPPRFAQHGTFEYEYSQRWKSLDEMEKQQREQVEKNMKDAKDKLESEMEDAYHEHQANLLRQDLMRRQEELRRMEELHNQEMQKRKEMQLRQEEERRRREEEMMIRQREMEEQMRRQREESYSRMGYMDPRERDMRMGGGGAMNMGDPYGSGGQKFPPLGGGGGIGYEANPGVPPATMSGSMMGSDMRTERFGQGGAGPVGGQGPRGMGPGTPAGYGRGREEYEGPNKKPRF

[4] = biological target: T1, full-length SFPQ (splicing factor …); test: SEC-SAXS; inline SEC-SAXS co-flow, Superdex 200 5/150, 500 mM KNO3, 20 mM HEPES pH 7.4, 5% glycerol, 1 mM DTT, 25 °C; injected at 4.2 mg/ml (full length) or 5 mg/ml (1–598); settings: remark: other sources report otherwise

B1: SFPQ residues 1–598 (domain or fragment, Homo sapiens, UniProt P23246 1-598, looked up)
chain: MSRDRFRSRGGGGGGFHRRGGGGGRGGLHDFRSPPPGMGLNQNRGPMGPGPGQSGPKPPIPPPPPHQQQQQPPPQQPPPQQPPPHQPPPHPQPHQQQQPPPPPQDSSKPVVAQGPGPAPGVGSAPPASSSAPPATPPTSGAPPGSGPGPTPTPPPAVTSAPPGAPPPTPPSSGVPTTPPQAGGPPPPPAAVPGPGPGPKQGPGPGGPKGGKMPGGPKPGGGPGLSTPGGHPKPPHRGGGEPRGGRQHHPPYHQQHHQGPPPGGPGGRSEEKISDSEGFKANLSLLRRPGEKTYTQRCRLFVGNLPADITEDEFKRLFAKYGEPGEVFINKGKGFGFIKLESRALAEIAKAELDDTPMRGRQLRVRFATHAAALSVRNLSPYVSNELLEEAFSQFGPIERAVVIVDDRGRSTGKGIVEFASKPAARKAFERCSEGVFLLTTTPRPVIVEPLEQLDDEDGLPEKLAQKNPMYQKERETPPRFAQHGTFEYEYSQRWKSLDEMEKQQREQVEKNMKDAKDKLESEMEDAYHEHQANLLRQDLMRRQEELRRMEELHNQEMQKRKEMQLRQEEERRRREEEMMIRQREMEEQMRRQREESYS
notes: The GFP tag was removed with TEV protease; that the His tag left with it is surmised from the second nickel column
- stoichiometry N [1]: 2
- stoichiometry N [2]: 2

- stoichiometry N [3]: 2
- stoichiometry N [4]: 2
B2: full-length SFPQ (splicing factor proline- and glutamine-rich), P23246 1-707 (natural protein)
chain: T1 chain
